Reference: the supplement of paper PMC10567573

B1: ZNF263 (parent)
chain: EKPYKCPECGEIFAHSSNLLRHQR
B2: GFOD1 (parent)
chain: EEAEELAKEMSVPFYTSRIDEVLL

Variants of: B1
Experiment: protein stability index of a GFP-peptide fusion (GPS, HEK-293T) (PSI 1-6); higher = more stable
Conditions: c terminus: a fixed tail appended
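Further: lentivirally expressed fusions sorted by FACS into six bins by GFP to DsRed ratio, PSI derived from sequencing read proportions per bin multiplied by bin number.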

Variant	protein stability index
EKPYKCPECGEIFAHSSNLLRHQE [R24E]	4.38
EKPYKCPECGEIFAHSSNLLRHQF [R24F]	3.32
EKPYKCPECGEIFAHSSNLLRHQG [R24G]	3.7
EKPYKCPECGEIFAHSSNLLRHQH [R24H]	4.43
EKPYKCPECGEIFAHSSNLLRHQI [R24I]	3.25
EKPYKCPECGEIFAHSSNLLRHQK [R24K]	3.25
EKPYKCPECGEIFAHSSNLLRHQL [R24L]	4.29
EKPYKCPECGEIFAHSSNLLRHQM [R24M]	3.6
EKPYKCPECGEIFAHSSNLLRHQN [R24N]	3.92
EKPYKCPECGEIFAHSSNLLRHQP [R24P]	3.44
EKPYKCPECGEIFAHSSNLLRHQQ [R24Q]	3.74
EKPYKCPECGEIFAHSSNLLRHQS [R24S]	4.47
EKPYKCPECGEIFAHSSNLLRHQT [R24T]	3.24
EKPYKCPECGEIFAHSSNLLRHQV [R24V]	3.54
EKPYKCPECGEIFAHSSNLLRHQW [R24W]	2.74
EKPYKCPECGEIFAHSSNLLRHQY [R24Y]	2.68

Variants of: B2
Experiment: as above
Conditions: c terminus: a fixed tail appended

Variant	protein stability index
AEAEELAKEMSVPFYTSRIDEVLL [E1A]	3.79
CEAEELAKEMSVPFYTSRIDEVLL [E1C]	3.08
GEAEELAKEMSVPFYTSRIDEVLL [E1G]	2.43
HEAEELAKEMSVPFYTSRIDEVLL [E1H]	4.47
IEAEELAKEMSVPFYTSRIDEVLL [E1I]	2.46
KEAEELAKEMSVPFYTSRIDEVLL [E1K]	4.03
LEAEELAKEMSVPFYTSRIDEVLL [E1L]	3.75
MEAEELAKEMSVPFYTSRIDEVLL [E1M]	3.45
NEAEELAKEMSVPFYTSRIDEVLL [E1N]	2.83
PEAEELAKEMSVPFYTSRIDEVLL [E1P]	3.51
REAEELAKEMSVPFYTSRIDEVLL [E1R]	3.33
SEAEELAKEMSVPFYTSRIDEVLL [E1S]	4.24
TEAEELAKEMSVPFYTSRIDEVLL [E1T]	3.56
VEAEELAKEMSVPFYTSRIDEVLL [E1V]	2.95
YEAEELAKEMSVPFYTSRIDEVLL [E1Y]	2.98
EAAEELAKEMSVPFYTSRIDEVLL [E2A]	3.66
ECAEELAKEMSVPFYTSRIDEVLL [E2C]	3.06
EDAEELAKEMSVPFYTSRIDEVLL [E2D]	3.72
EFAEELAKEMSVPFYTSRIDEVLL [E2F]	2.1
EGAEELAKEMSVPFYTSRIDEVLL [E2G]	3.39
EHAEELAKEMSVPFYTSRIDEVLL [E2H]	3.06
EIAEELAKEMSVPFYTSRIDEVLL [E2I]	2.18
ELAEELAKEMSVPFYTSRIDEVLL [E2L]	2.76
EMAEELAKEMSVPFYTSRIDEVLL [E2M]	2.53
ENAEELAKEMSVPFYTSRIDEVLL [E2N]	4
ERAEELAKEMSVPFYTSRIDEVLL [E2R]	2.94

Variant	protein stability index
ESAEELAKEMSVPFYTSRIDEVLL [E2S]	3.41
ETAEELAKEMSVPFYTSRIDEVLL [E2T]	3.2
EVAEELAKEMSVPFYTSRIDEVLL [E2V]	3.64
EWAEELAKEMSVPFYTSRIDEVLL [E2W]	3.66
EYAEELAKEMSVPFYTSRIDEVLL [E2Y]	2.39
EECEELAKEMSVPFYTSRIDEVLL [A3C]	2.56
EEEEELAKEMSVPFYTSRIDEVLL [A3E]	4.32
EEGEELAKEMSVPFYTSRIDEVLL [A3G]	3.95
EEHEELAKEMSVPFYTSRIDEVLL [A3H]	3.84
EEKEELAKEMSVPFYTSRIDEVLL [A3K]	4.38
EELEELAKEMSVPFYTSRIDEVLL [A3L]	3.11
EENEELAKEMSVPFYTSRIDEVLL [A3N]	4.03
EEVEELAKEMSVPFYTSRIDEVLL [A3V]	3.32
EEYEELAKEMSVPFYTSRIDEVLL [A3Y]	3.38
EEAAELAKEMSVPFYTSRIDEVLL [E4A]	3.45
EEACELAKEMSVPFYTSRIDEVLL [E4C]	2.73
EEADELAKEMSVPFYTSRIDEVLL [E4D]	3.97
EEAFELAKEMSVPFYTSRIDEVLL [E4F]	2.98
EEAGELAKEMSVPFYTSRIDEVLL [E4G]	3.4
EEAHELAKEMSVPFYTSRIDEVLL [E4H]	3.4
EEAIELAKEMSVPFYTSRIDEVLL [E4I]	3.51
EEAKELAKEMSVPFYTSRIDEVLL [E4K]	3.46
EEALELAKEMSVPFYTSRIDEVLL [E4L]	2.9
EEAMELAKEMSVPFYTSRIDEVLL [E4M]	4
EEANELAKEMSVPFYTSRIDEVLL [E4N]	3.92
EEAPELAKEMSVPFYTSRIDEVLL [E4P]	3.6

Variant	protein stability index
EEAQELAKEMSVPFYTSRIDEVLL [E4Q]	3.9
EEARELAKEMSVPFYTSRIDEVLL [E4R]	3.52
EEASELAKEMSVPFYTSRIDEVLL [E4S]	3.93
EEATELAKEMSVPFYTSRIDEVLL [E4T]	3.86
EEAWELAKEMSVPFYTSRIDEVLL [E4W]	2.77
EEAYELAKEMSVPFYTSRIDEVLL [E4Y]	2.64
EEAEALAKEMSVPFYTSRIDEVLL [E5A]	3.45
EEAECLAKEMSVPFYTSRIDEVLL [E5C]	3.79
EEAEDLAKEMSVPFYTSRIDEVLL [E5D]	3.93
EEAEFLAKEMSVPFYTSRIDEVLL [E5F]	2.94
EEAEGLAKEMSVPFYTSRIDEVLL [E5G]	4.04
EEAEHLAKEMSVPFYTSRIDEVLL [E5H]	3.6
EEAEILAKEMSVPFYTSRIDEVLL [E5I]	2.57
EEAEKLAKEMSVPFYTSRIDEVLL [E5K]	4.14
EEAELLAKEMSVPFYTSRIDEVLL [E5L]	4.05
EEAEMLAKEMSVPFYTSRIDEVLL [E5M]	2.95
EEAENLAKEMSVPFYTSRIDEVLL [E5N]	3.23
EEAEPLAKEMSVPFYTSRIDEVLL [E5P]	3.96
EEAERLAKEMSVPFYTSRIDEVLL [E5R]	3.56
EEAESLAKEMSVPFYTSRIDEVLL [E5S]	3.13
EEAETLAKEMSVPFYTSRIDEVLL [E5T]	3.48
EEAEVLAKEMSVPFYTSRIDEVLL [E5V]	2.58
EEAEWLAKEMSVPFYTSRIDEVLL [E5W]	2.35
EEAEYLAKEMSVPFYTSRIDEVLL [E5Y]	3.98
EEAEEAAKEMSVPFYTSRIDEVLL [L6A]	4.38
EEAEECAKEMSVPFYTSRIDEVLL [L6C]	4.38
